Assay results reported in US20150246136A1 (Bayer, published 2015).

B1: Example 71, conjugate of anti-mesothelin antibody MF-Ta (antibody, human IgG1, lambda, V domains shown)
VH: QVELVQSGAEVKKPGESLKISCKGSGYSFTSYWIGWVRQAPGKGLEWMGIIDPGDSRTRYSPSFQGQVTISADKSISTAYLQWSSLKASDTAMYYCARGQLYGGTYMDGWGQGTLVTVSS
VL: DIALTQPASVSGSPGQSITISCTGTSSDIGGYNSVSWYQQHPGKAPKLMIYGVNNRPSGVSNRFSGSKSGNTASLTISGLQAEDEADYYCSSYDIESATPVFGGGTKLTVLG
modifications: toxophore-linker on Cys sulfur, sites not given
B2: Example 79, conjugate of anti-mesothelin antibody MF-Ta (antibody, human IgG1, lambda, V domains shown)
VH: B1 VH
VL: B1 VL
modifications: toxophore-linker on Cys sulfur, sites not given
B3: Example 78, conjugate of anti-mesothelin antibody MF-Ta (antibody, human IgG1, lambda, V domains shown)
VH: B1 VH
VL: B1 VL
modifications: toxophore-linker on Cys sulfur, sites not given
B4: Example 103, conjugate of anti-mesothelin antibody MF-Ta (antibody, human IgG1, lambda, V domains shown)
VH: B1 VH
VL: B1 VL
modifications: toxophore-linker on Cys sulfur, sites not given
B5: Example 92, conjugate of anti-mesothelin antibody MF-Ta (antibody, human IgG1, lambda, V domains shown)
VH: B1 VH
VL: B1 VL
modifications: toxophore-linker on Cys sulfur, sites not given
B6: Example 72, conjugate of anti-mesothelin antibody MF-Ta (antibody, human IgG1, lambda, V domains shown)
VH: B1 VH
VL: B1 VL
modifications: toxophore-linker on Cys sulfur, sites not given
B7: Example 74, conjugate of anti-mesothelin antibody MF-Ta (antibody, human IgG1, lambda, V domains shown)
VH: B1 VH
VL: B1 VL
modifications: toxophore-linker on Cys sulfur, sites not given
B8: Example 94, conjugate of anti-mesothelin antibody MF-Ta (antibody, human IgG1, lambda, V domains shown)
VH: B1 VH
VL: B1 VL
modifications: toxophore-linker on Cys sulfur, sites not given
B9: Example 102, conjugate of anti-mesothelin antibody MF-Ta (antibody, human IgG1, lambda, V domains shown)
VH: B1 VH
VL: B1 VL
modifications: toxophore-linker on Lys NH, sites not given
B10: Example 96, conjugate of anti-mesothelin antibody MF-Ta (antibody, human IgG1, lambda, V domains shown)
VH: B1 VH
VL: B1 VL
modifications: toxophore-linker on Cys sulfur, sites not given
B11: Example 98, conjugate of anti-mesothelin antibody MF-Ta (antibody, human IgG1, lambda, V domains shown)
VH: B1 VH
VL: B1 VL
modifications: toxophore-linker on Cys sulfur, sites not given
B12: Example 73, conjugate of anti-mesothelin antibody MF-Ta (antibody, human IgG1, lambda, V domains shown)
VH: B1 VH
VL: B1 VL
modifications: toxophore-linker on Cys sulfur, sites not given
B13: Example 84, conjugate of anti-mesothelin antibody MF-Ta (antibody, human IgG1, lambda, V domains shown)
VH: B1 VH
VL: B1 VL
modifications: toxophore-linker on Lys NH, sites not given
B14: Example 82, conjugate of anti-mesothelin antibody MF-Ta (antibody, human IgG1, lambda, V domains shown)
VH: B1 VH
VL: B1 VL
modifications: toxophore-linker on Cys sulfur, sites not given
B15: Example 113, conjugate of anti-mesothelin antibody MF-Ta (antibody, human IgG1, lambda, V domains shown)
VH: B1 VH
VL: B1 VL
modifications: toxophore-linker on Lys NH, sites not given
B16: Example 99, conjugate of anti-mesothelin antibody MF-Ta (antibody, human IgG1, lambda, V domains shown)
VH: B1 VH
VL: B1 VL
modifications: toxophore-linker on Cys sulfur, sites not given
B17: Example 75, conjugate of anti-mesothelin antibody MF-Ta (antibody, human IgG1, lambda, V domains shown)
VH: B1 VH
VL: B1 VL
modifications: toxophore-linker on Lys NH, sites not given
B18: Example 85, conjugate of anti-mesothelin antibody MF-Ta (antibody, human IgG1, lambda, V domains shown)
VH: B1 VH
VL: B1 VL
modifications: toxophore-linker on Cys sulfur, sites not given
B19: Example 89, conjugate of anti-mesothelin antibody MF-Ta (antibody, human IgG1, lambda, V domains shown)
VH: B1 VH
VL: B1 VL
modifications: toxophore-linker on Cys sulfur, sites not given
B20: Example 106, conjugate of anti-mesothelin antibody MF-Ta (antibody, human IgG1, lambda, V domains shown)
VH: B1 VH
VL: B1 VL
modifications: toxophore-linker on Cys sulfur, sites not given
B21: Example 80, conjugate of anti-mesothelin antibody MF-Ta (antibody, human IgG1, lambda, V domains shown)
VH: B1 VH
VL: B1 VL
modifications: toxophore-linker on Cys sulfur, sites not given
B22: Example 114, conjugate of anti-mesothelin antibody MF-Ta (antibody, human IgG1, lambda, V domains shown)
VH: B1 VH
VL: B1 VL
modifications: toxophore-linker on Cys sulfur, sites not given
B23: Example 87, conjugate of anti-mesothelin antibody MF-Ta (antibody, human IgG1, lambda, V domains shown)
VH: B1 VH
VL: B1 VL
modifications: toxophore-linker on Lys NH, sites not given
B24: Example 97, conjugate of anti-mesothelin antibody MF-Ta (antibody, human IgG1, lambda, V domains shown)
VH: B1 VH
VL: B1 VL
modifications: toxophore-linker on Cys sulfur, sites not given
B25: Example 105, conjugate of anti-mesothelin antibody MF-Ta (antibody, human IgG1, lambda, V domains shown)
VH: B1 VH
VL: B1 VL
modifications: toxophore-linker on Lys NH, sites not given
B26: Example 108, conjugate of anti-mesothelin antibody MF-Ta (antibody, human IgG1, lambda, V domains shown)
VH: B1 VH
VL: B1 VL
modifications: toxophore-linker on Cys sulfur, sites not given
B27: Example 88, conjugate of anti-mesothelin antibody MF-Ta (antibody, human IgG1, lambda, V domains shown)
VH: B1 VH
VL: B1 VL
modifications: toxophore-linker on Cys sulfur, sites not given
B28: Example 112, conjugate of anti-mesothelin antibody MF-Ta (antibody, human IgG1, lambda, V domains shown)
VH: B1 VH
VL: B1 VL
modifications: toxophore-linker on Cys sulfur, sites not given
B29: Example 77, conjugate of anti-mesothelin antibody MF-Ta (antibody, human IgG1, lambda, V domains shown)
VH: B1 VH
VL: B1 VL
modifications: toxophore-linker on Cys sulfur, sites not given
B30: Example 76, conjugate of anti-mesothelin antibody MF-Ta (antibody, human IgG1, lambda, V domains shown)
VH: B1 VH
VL: B1 VL
modifications: toxophore-linker on Cys sulfur, sites not given
B31: Example 86, conjugate of anti-mesothelin antibody MF-Ta (antibody, human IgG1, lambda, V domains shown)
VH: B1 VH
VL: B1 VL
modifications: toxophore-linker on Cys sulfur, sites not given
B32: Example 93, conjugate of anti-mesothelin antibody MF-Ta (antibody, human IgG1, lambda, V domains shown)
VH: B1 VH
VL: B1 VL
modifications: toxophore-linker on Lys NH, sites not given
B33: Example 107, conjugate of anti-mesothelin antibody MF-Ta (antibody, human IgG1, lambda, V domains shown)
VH: B1 VH
VL: B1 VL
modifications: toxophore-linker on Cys sulfur, sites not given
B34: Example 95, conjugate of anti-mesothelin antibody MF-Ta (antibody, human IgG1, lambda, V domains shown)
VH: B1 VH
VL: B1 VL
modifications: toxophore-linker on Cys sulfur, sites not given
B35: Example 81, conjugate of anti-mesothelin antibody MF-Ta (antibody, human IgG1, lambda, V domains shown)
VH: B1 VH
VL: B1 VL
modifications: toxophore-linker on Cys sulfur, sites not given
B36: Example 90, conjugate of anti-mesothelin antibody MF-Ta (antibody, human IgG1, lambda, V domains shown)
VH: B1 VH
VL: B1 VL
modifications: toxophore-linker on Cys sulfur, sites not given
B37: Example 104, conjugate of anti-mesothelin antibody MF-Ta (antibody, human IgG1, lambda, V domains shown)
VH: B1 VH
VL: B1 VL
modifications: toxophore-linker on Lys NH, sites not given
B38: Example 111, conjugate of anti-mesothelin antibody MF-Ta (antibody, human IgG1, lambda, V domains shown)
VH: B1 VH
VL: B1 VL
modifications: toxophore-linker on Cys sulfur, sites not given
B39: Example 101, conjugate of anti-mesothelin antibody MF-Ta (antibody, human IgG1, lambda, V domains shown)
VH: B1 VH
VL: B1 VL
modifications: toxophore-linker on Cys sulfur, sites not given
B40: Example 83, conjugate of anti-mesothelin antibody MF-Ta (antibody, human IgG1, lambda, V domains shown)
VH: B1 VH
VL: B1 VL
modifications: toxophore-linker on Cys sulfur, sites not given
B41: Example 110, conjugate of anti-mesothelin antibody MF-Ta (antibody, human IgG1, lambda, V domains shown)
VH: B1 VH
VL: B1 VL
modifications: toxophore-linker on Cys sulfur, sites not given
B42: Example 91, conjugate of anti-mesothelin antibody MF-Ta (antibody, human IgG1, lambda, V domains shown)
VH: B1 VH
VL: B1 VL
modifications: toxophore-linker on Cys sulfur, sites not given
B43: Example 100, conjugate of anti-mesothelin antibody MF-Ta (antibody, human IgG1, lambda, V domains shown)
VH: B1 VH
VL: B1 VL
modifications: toxophore-linker on Cys sulfur, sites not given
B44: Example 109, conjugate of anti-mesothelin antibody MF-Ta (antibody, human IgG1, lambda, V domains shown)
VH: B1 VH
VL: B1 VL
modifications: toxophore-linker on Cys sulfur, sites not given

Target: Mesothelin (SwissProt reference Q13421-3) (Homo sapiens, UniProt Q13421 37-622)
Test: cell-based or functional assay

Binder	IC50 (nM), HT29 meso+ cells, MTT proliferation assay
B1	0.6 nM
B2	0.5 nM
B3	1.1 nM
B4	10 nM
B5	38 nM
B6	0.05 nM
B7	9 nM
B8	0.6 nM
B9	7.2 nM
B10	25 nM
B11	1.7 nM
B12	25 nM
B13	6 nM
B14	24 nM
B15	0.4 nM
B16	0.27 nM
B17	0.2 nM
B18	0.2 nM
B19	0.06 nM
B20	0.8 nM
B21	4.4 nM
B22	0.6 nM

Binder	IC50 (nM), HT29 meso+ cells, MTT proliferation assay
B23	0.9 nM
B24	0.2 nM
B25	0.6 nM
B26	0.74 nM
B27	0.01 nM
B28	0.018 nM
B29	0.8 nM
B30	0.35 nM
B31	0.45 nM
B32	52 nM
B33	3 nM
B34	0.013 nM
B35	0.02 nM
B36	2.6 nM
B37	1.8 nM
B38	0.7 nM
B39	3 nM
B40	0.3 nM
B41	0.002 nM
B42	0.35 nM
B43	2 nM
B44	0.09 nM
